Data as given in US20150320880A1, “ANTIBODY DRUG CONJUGATES” (NOVARTIS AG, priority 2013, published 2015).
Changes are numbered by the printed parent chain.

B1: 20376 (antibody, human IgG1, lambda, V domains shown)
VH: QVQLVQSGAEVKKPGSSVKVSCKASGGTFSSYAISWVRQAPGQGLEWMGGIIPMSGRTTYAQKFQGRVTITADESTSTAYMELSSLRSEDTAVYYCARDYGPEAPDYGQSTSYFWYYAFDPWGQGTLVTVSS
VL: DIELTQPPSVSVSPGQTASITCSGDNIPSYFVHWYQQKPGQAPVLVIYDDNDRPSGIPERFSGSNSGNTATLTISGTQAEDEADYYCSSWDQDTVVFGGGTKLTVLG
notes: human IgG1 lambda
B2: anti-cKIT antibody 9P3 (antibody, V domains shown)
VH: EVRLVESEGGLVQPRSSMKLSCTASGFTFSDYYMAWVRQVPEKGLEWVANINYDGSSTYYLDSLKSRFIISRDNAKNILYLQMSSLKSEDTATYYCARGDYYGTTYWYFDVWGTGTTVTVSS
VL: DIQMTQTTSSLSASLGDRVTISCRASQDISNYLNWYQQKPDGTVKLLIYYTSRLQSGVPSRFSGSGSGTDYSLTISNLEQEDIATYFCQQGKKLWSFGGGTKLEIKR
notes: Hybridoma-derived mouse variable domains; also called murine 9P3
B3: NEG085-MCC-DM1 (antibody, human IgG1, kappa, V domains shown)
VH: EVQLVESGGGLVQPGGSLRLSCAASGFAFSGYYMAWVRQAPGKGLEWVANINYPGSSTYYLDSVKGRFTISRDNAKNSLYLQMNSLRAEDTAVYYCARGDYYGTTYWYFDVWGQGTTVTVSS
VL: DIQMTQSPSSLSASVGDRVTITCRASQSISSYLNWYQQKPGKAPKLLIYYTSRLQSGVPSRFSGSGSGTDFTLTISSLQPEDFATYYCQQGRRLWSFGGGTKVEIKR
modifications: DM1 linked through the MCC (SMCC) linker to primary amines of the antibody, sites not stated; DM1 linked through the MCC (SMCC) linker to primary amines of the antibody, sites not stated; average MAR 3.5 (Table 7)
notes: Antibody drug conjugate of NEG085
B4: NEG086-MCC-DM1 (antibody, human IgG1, kappa, V domains shown)
VH: B3 VH with A28T, G31D, Y53Q, P54I, G55A, S56G, L61V, K65Q
VL: B3 VL
modifications: DM1 linked through the MCC (SMCC) linker to primary amines of the antibody, sites not stated; DM1 linked through the MCC (SMCC) linker to primary amines of the antibody, sites not stated; average MAR 3.5 (Table 7)
notes: Antibody drug conjugate of NEG086
B5: NEG026 (antibody, human IgG1, kappa, V domains shown)
VH: B3 VH with A28T, G31D, Y53Q, P54N, G55T, S56G, L61V, K65Q
VL: EIVMTQSPATLSLSPGERATLSCRASQDISNYLNWYQQKPGQAPRLLIYYTSRLQSGIPARFSGSGSGTDYTLTISSLEPEDFAVYYCQQGKKLWSFGGGTKVEIKR
notes: Humanized, optimized variant of 9P3; human IgG1 kappa

How the values were obtained:
[1] = test system: Uke-1 cells; experiment: ADCC activity in vitro (Calcein release, NK3.3 effector cells); type: cell-based; conditions: effector to target ratio 20 to 1
Procedure: In brief, Uke-1 cells were stained with Calcein acetoxy-methyl ester (Calcein-AM; Sigma-Aldrich catalog #17783-5MG, St. Louis, Mo.), washed twice, pipetted into a 96-well microtiterplate (96 well, U-bottomed, clear plastic; Corning Costar, catalog #650 160, Tewksbury, Mass.) at a concentration of 5000 cells per well and pre-incubated for 10 min with a serial dilution of the above mentioned antibodies and proteins (from 50,000 to 0.003 μg per ml) before adding the effector NK3.3 cells for 1 hour in an effector to target ratio of 20 to 1. In order to calculate the antibody specific lysis of the target cells, a parallel incubation of target cells only without antibody or effector cells served as a baseline and negative control, whereas the positive control or maximal lysis or hundred percent specific lysis was determined by lysis of target cells only with a 1% Triton-X 100 solution. […] Following a co-incubation of target and effector cells, the microtiterplate was centrifuged and an aliquot of the supernatant fluid was transferred to another microtiterplate (96 well, flat-bottomed, black with clear bottom; (Corning Costar, catalog #3904, Tewksbury, Mass.) and the concentration of free Calcein in solution was determined with a fluorescence counter (Victor 3 ® multilabel counter, Perkin Elmer, Waltham, Mass.).

[2] = biological target: T1, Rat cKIT D1-5 (residues 25-526, C-terminal mFc) (rat); experiment: SPR (Biacore 2000), antibody captured on anti-human Fc
T1 construct: The entry includes the linker and mouse Fc tag; also called rat cKIT-mFc
T1 chain: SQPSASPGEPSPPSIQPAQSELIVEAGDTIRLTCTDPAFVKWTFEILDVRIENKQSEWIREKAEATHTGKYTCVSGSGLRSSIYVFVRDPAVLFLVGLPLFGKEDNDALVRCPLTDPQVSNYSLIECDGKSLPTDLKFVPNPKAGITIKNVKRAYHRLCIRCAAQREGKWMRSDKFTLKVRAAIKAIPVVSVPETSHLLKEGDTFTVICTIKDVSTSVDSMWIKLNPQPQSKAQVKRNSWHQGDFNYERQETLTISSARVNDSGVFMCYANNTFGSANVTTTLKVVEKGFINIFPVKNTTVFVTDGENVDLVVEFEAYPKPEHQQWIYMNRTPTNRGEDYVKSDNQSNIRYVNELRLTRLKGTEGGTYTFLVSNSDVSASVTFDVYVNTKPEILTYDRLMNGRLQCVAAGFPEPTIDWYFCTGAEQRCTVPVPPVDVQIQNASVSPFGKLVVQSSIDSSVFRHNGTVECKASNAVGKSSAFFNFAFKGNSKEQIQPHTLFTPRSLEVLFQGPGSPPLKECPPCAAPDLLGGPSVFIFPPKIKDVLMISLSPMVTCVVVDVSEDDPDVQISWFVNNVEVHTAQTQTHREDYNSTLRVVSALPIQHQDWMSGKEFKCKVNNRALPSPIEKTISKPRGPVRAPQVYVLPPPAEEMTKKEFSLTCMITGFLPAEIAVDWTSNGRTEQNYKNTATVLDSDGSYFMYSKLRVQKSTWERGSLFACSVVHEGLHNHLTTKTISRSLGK

[3] = biological target: T2, Cynomolgus monkey cKIT D1-5 (residues 25-520, C-terminal His tag) (cynomolgus monkey, UniProt P10721 25-520 (human entry)); experiment: SPR (Biacore 2000), antibody captured on anti-human Fc, cKIT ECD as analyte, 25 C, 1:1 fit
T2 construct: the signal peptide was not part of the protein in the assay; also called cyno cKIT; cynomolgus monkey ECD
T2 chain: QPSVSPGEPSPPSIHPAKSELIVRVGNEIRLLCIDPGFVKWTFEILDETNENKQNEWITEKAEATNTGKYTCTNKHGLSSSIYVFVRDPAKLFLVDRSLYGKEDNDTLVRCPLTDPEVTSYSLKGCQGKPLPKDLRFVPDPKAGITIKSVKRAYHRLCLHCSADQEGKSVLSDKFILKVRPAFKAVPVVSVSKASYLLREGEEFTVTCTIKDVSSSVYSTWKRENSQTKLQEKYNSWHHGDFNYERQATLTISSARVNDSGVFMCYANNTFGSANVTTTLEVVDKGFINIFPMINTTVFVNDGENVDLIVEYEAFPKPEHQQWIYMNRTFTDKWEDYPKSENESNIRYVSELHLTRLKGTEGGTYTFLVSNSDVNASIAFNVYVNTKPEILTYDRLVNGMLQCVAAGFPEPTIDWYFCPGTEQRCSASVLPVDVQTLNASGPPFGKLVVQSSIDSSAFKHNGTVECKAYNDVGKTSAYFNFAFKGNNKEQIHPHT

[4] = biological target: T3, Human cKIT D1-5 (human cKIT tr. variant 2, residues 26-520, C-terminal His tag) (human, UniProt P10721 26-524); experiment: as above
T3 construct: also called human cKIT ECD; Human c-Kit ECD

[5] = biological target: T4, Mouse cKIT ECD, C-terminal 6x His (Sino Biological Inc, catalog number 50530-M08H) (mouse, UniProt P05532 25-527); experiment: as above
T4 construct: extracellular domain; Bought protein
T4 sequence (looked up): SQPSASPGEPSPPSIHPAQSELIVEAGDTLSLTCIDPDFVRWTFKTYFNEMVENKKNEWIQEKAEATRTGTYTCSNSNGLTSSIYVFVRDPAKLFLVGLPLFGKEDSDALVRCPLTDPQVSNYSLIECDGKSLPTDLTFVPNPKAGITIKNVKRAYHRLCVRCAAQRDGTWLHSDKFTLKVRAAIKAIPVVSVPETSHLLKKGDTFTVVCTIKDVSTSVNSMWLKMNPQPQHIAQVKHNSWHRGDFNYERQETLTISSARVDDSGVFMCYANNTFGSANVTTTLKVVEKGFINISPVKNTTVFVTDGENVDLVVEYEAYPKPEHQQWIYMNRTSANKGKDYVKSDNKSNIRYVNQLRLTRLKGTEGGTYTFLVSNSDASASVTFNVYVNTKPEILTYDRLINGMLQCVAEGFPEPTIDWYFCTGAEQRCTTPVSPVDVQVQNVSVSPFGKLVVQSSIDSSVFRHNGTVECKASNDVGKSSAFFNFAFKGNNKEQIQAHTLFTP

[6] = biological target: T3, Human cKIT D1-5 (human cKIT tr. variant …); experiment: SPR (Biacore T100), CM5 chip, method as in Example 7; unconjugated antibody
[7] = biological target: SCF binding to cKIT (Homo sapiens, UniProt P10721); experiment: Competition assays (ELISA and FACS) of SCF binding to cKIT
[8] = test system: GIST T1 subcutaneous tumor xenograft; conditions: Example 28, single i.v. dose: 9P3 10 mg/kg, IgG1-MCC-DM1 5 mg/kg, IgG1-SPDB-DM4 10 mg/kg, 9P3-MCC-DM1 5 and 10 mg/kg, 9P3-SPDB-DM4 2.5 and 5 mg/kg
Procedure: The anti-tumor activity of anti-cKIT ADCs was evaluated in several tumor xenograft models.

[9] = biological target: T4, Mouse cKIT ECD, C-terminal 6x His (Sino …); experiment: SPR (Biacore 2000), antibody captured on anti-human Fc
[10] = biological target: mouse cKIT ECD; experiment: SPR (Biacore 2000) affinity measurement; type: binding; conditions: 25° C.
Procedure: (§1) Affinity of the antibodies to cKIT species orthologues and also to cKIT was determined using SPR technology using a Biacore® 2000 instrument (GE Healthcare, Pittsburgh, Pa.) and with CM5 sensor chips.
(§2) Briefly, HBS-P (0.01 M HEPES, pH 7.4, 0.15 M NaCl, 0.005% Surfactant P20) supplemented with 2% Odyssey® blocking buffer (Li-Cor Biosciences, Lincoln, Nebr.) was used as the running buffer for all the experiments. The immobilization level and analyte interactions were measured by response unit (RU). Pilot experiments were performed to test and confirm the feasibility of the immobilization of the anti-human Fc antibody (Catalog number BR100839, GE Healthcare, Pittsburgh, Pa.) and the capture of the test antibodies.
(§3) For kinetic measurements, the experiments were performed in which the antibodies were captured to the sensor chip surface via the immobilized anti-human Fc antibody and the ability of the cKIT proteins to bind in free solution was determined Briefly, 25 μg/ml of anti-human Fc antibody at pH 5 was immobilized on a CM5 sensor chip through amine coupling at flow rate of 5 μl/minute on all two flow cells to reach 10,500 RUs. 0.1-1 μg/ml of test antibodies were then injected at 10 μl/min for 1 minute. Captured levels of the antibodies were generally kept below 200 RUs. Subsequently, 3.125-50 nM of cKIT receptor extracellular domains (ECD) were diluted in a 2-fold series and injected at a flow rate of 40 μl/min for 3 min over both reference and test flow cells. Table of tested ECDs is listed below. Dissociation of the binding was followed for 10 min. After each injection cycle, the chip surface was regenerated with 3 M MgCl2 at 10 μl/min for 30 s.

[11] = biological target: T5, human cKIT ECD (Homo sapiens, UniProt P10721); experiment: SPR (Biacore 2000) affinity measurement; type: binding; conditions: 25° C.
T5 construct: Human cKIT tr. variant 2, residues 26-520-TAG; made in house; host or cells: HEK293 derived cell lines (293FS), transient transfection
Procedure: as §1, §2, §3

[12] = biological target: T3, Human cKIT D1-5 (human cKIT tr. variant …); experiment: SPR (Biacore T100), CM5 chip, method as in Example 7; MCC-DM1 conjugate
[13] = biological target: T6, Human cKIT D1-3 (human cKIT tr. variant 1, residues 26-311, tagged) (human, UniProt P10721 26-311); experiment: ELISA on coated cKIT subdomain constructs (Example 6)
T6 construct: also called cKIT subdomains 1-3
T6 sequence (P10721 other isoform, or with tags, fused parts or gaps mutant limits assumed): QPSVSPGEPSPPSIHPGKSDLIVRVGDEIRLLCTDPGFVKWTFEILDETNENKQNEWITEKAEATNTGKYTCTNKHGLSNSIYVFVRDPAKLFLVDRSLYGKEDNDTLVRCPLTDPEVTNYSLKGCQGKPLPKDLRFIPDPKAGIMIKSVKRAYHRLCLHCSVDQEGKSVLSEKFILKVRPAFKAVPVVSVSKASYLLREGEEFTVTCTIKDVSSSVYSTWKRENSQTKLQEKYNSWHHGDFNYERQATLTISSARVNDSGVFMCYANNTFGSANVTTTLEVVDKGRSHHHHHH

T3 sequence (P10721 other isoform, or with tags, fused parts or gaps mutant limits assumed): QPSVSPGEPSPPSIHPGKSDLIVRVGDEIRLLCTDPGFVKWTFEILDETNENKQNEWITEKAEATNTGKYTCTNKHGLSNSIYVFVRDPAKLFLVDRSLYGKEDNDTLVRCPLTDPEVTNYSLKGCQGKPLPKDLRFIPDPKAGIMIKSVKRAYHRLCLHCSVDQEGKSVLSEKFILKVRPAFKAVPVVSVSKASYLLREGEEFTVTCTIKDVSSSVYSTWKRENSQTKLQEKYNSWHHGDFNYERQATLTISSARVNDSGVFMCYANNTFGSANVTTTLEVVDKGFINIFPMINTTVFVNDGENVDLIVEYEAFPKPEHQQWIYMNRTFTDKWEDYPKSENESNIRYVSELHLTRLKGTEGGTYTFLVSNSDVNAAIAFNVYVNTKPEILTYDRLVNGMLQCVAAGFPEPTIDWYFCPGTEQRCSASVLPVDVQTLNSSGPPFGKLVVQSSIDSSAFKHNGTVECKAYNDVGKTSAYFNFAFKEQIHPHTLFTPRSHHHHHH
Chain of SCF binding to cKIT (P10721 26-524 limits assumed): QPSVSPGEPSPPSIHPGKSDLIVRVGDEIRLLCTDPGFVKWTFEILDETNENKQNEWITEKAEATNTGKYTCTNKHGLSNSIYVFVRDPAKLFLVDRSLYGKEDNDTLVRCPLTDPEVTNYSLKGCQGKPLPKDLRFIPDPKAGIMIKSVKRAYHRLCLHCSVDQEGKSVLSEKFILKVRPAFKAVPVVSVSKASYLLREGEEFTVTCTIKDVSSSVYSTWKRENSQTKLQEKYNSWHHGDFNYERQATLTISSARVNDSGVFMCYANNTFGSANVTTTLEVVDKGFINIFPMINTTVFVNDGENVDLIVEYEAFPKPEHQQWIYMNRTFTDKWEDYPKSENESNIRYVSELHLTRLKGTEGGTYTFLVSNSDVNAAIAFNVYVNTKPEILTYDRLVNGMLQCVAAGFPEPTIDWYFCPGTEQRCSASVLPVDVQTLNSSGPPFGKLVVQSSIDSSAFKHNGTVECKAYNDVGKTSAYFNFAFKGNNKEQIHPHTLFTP

Molecule	binding result [2]	Kd [4] [nM]	binding result [9]	Kd [12] [nM]	other results
MabCampath [reference compound]	–	–	–	–	ADCC killing of target cells [1]: mediated ADCC killing of the target cells
B1	no binding (tested: 3.125-50 nM of cKIT ECD injected)	9.1	–	–	Kd [3]: 4.8 nM; Kd [5]: 2.5 nM; Kd [6]: 9.1 nM
B2	no binding (tested: 3.125-50 nM of cKIT ECD injected)	20	no binding (tested: 3.125-50 nM of cKIT ECD injected)	–	blocking of SCF binding to cKIT [7]: partial blocking of SCF binding to cKIT; anti-tumor activity (tumor volume) [8]: Neither the control non-specific IgG1 ADCs nor the unconjugated 9P3 were efficacious; Affinity mouse cKIT (nM) [10]: Not reactive; Affinity human cKIT (nM) [11]: nanomolar level
B3	–	–	–	5.2	–
B4	–	–	–	1.8	–
B5	no binding (tested: 3.125-50 nM of cKIT ECD injected)	–	no binding (tested: 3.125-50 nM of cKIT ECD injected)	–	binding result [13]: binds
